Assay results reported in patent US20190382483A1 (OSE IMMUNOTHERAPEUTICS, published 2019).

Legend:
[1] = molecular target: T1, Recombinant hSIRPg-His (Sino Biologicals, reference 11828-H08H) (human, UniProt Q9P1W8 29-360); assay: Blitz, hSIRPg-His on Ni-NTA biosensor
T1 construct: Bought recombinant protein; also called human SIRPg recombinant protein; not shown: histidine tail
Description: This method was performed with a Blitz (Forté Bio; USA; reference C22-2 No 61010-1). Recombinant hSIRPg-His (Sino Biologicals, Beijing, China; reference 11828-H08H) was immobilized at 10 μg/ml by histidine tail into a Ni-NTA biosensor (Forte Bio; USA; reference 18-0029) for 30 seconds. Then, an antibody was associated at 20 μg/mL for 120 seconds. The dissociation of antibody was made in kinetics buffer for 120 seconds. Analysis of data was made with the Blitz pro 1.2 software, which calculated association constant (ka) and dissociation constant (kd) and determined the affinity constant KD […].

[2] = molecular target: T2, SIRPa variant 1 on human monocytes (homozygote v1/v1) (human, UniProt P78324 31-504); assay: flow cytometry on human monocytes (SIRPa v1/v1)
T2 construct: the target on the cells is SIRPa v1; also called human monocytes v1/v1; SIRPa v1
Description: FIG. 7. Binding analysis of antibodies on human monocytes (homozygote for SIRPa variant 1 (v1/v1)). […] Revelation was performed with a PE labeled mouse anti-human Fc mAb on CantoII cytometer, values corresponding to percentage of stained monocytes.

T2 sequence (P78324 31-504 limits assumed, change not shown): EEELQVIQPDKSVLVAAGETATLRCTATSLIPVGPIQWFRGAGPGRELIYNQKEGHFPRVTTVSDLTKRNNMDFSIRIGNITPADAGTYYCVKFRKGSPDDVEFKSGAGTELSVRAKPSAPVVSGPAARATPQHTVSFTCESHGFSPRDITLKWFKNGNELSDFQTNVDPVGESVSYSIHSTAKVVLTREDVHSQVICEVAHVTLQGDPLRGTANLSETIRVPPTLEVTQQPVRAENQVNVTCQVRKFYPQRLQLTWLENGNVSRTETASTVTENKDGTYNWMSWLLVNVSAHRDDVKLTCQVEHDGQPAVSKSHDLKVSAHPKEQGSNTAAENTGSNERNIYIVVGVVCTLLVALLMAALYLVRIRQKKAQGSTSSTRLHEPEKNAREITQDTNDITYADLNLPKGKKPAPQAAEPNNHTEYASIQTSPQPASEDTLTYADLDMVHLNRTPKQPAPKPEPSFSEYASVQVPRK
T1 sequence (Q9P1W8 29-360): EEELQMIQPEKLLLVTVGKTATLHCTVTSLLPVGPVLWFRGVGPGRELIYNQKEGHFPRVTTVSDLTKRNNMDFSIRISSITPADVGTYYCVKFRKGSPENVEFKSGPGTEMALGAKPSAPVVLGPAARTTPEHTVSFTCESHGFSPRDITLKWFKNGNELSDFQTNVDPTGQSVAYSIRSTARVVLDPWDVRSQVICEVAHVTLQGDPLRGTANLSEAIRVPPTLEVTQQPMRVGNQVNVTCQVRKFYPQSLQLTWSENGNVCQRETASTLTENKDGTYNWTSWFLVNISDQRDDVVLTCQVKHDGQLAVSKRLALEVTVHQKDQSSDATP

binding result [1]: binds | binding result [2]: binds
B1: Kwar23 (antibody, V domains shown)
VH: EVQLQQSGAELVKPGASVKLSCTASGFNIKDYYIHWVQQRTEQGLEWIGRIDPEDGETKYAPKFQDKATITADTSSNTAYLHLSSLTSEDTAVYYCARWGAYWGQGTLVTVSS
VL: QIVLTQSPAIMSASPGEKVTLTCSASSSVSSSYLYWYQQKPGSSPKLWIYSTSNLASGVPARFSGSGSGTSYSLTISSMEAEDAASYFCHQWSSYPRTFGAGTKLELK
notes: Commercial antibody (Creative Biolabs, Cat. No TAB-453CT); also called TAB-453CT (Creative Biolabs)
